From article PMC8937303 (Molecular Cell, 2022)
Values belong to the binder of their own block, whether it stands above or below them.

Experiments:
[1] = molecular target: T1, SHP2_(2SH2) (UniProt Q06124 1-221); assay: pull-down
T1 sequence (looked up): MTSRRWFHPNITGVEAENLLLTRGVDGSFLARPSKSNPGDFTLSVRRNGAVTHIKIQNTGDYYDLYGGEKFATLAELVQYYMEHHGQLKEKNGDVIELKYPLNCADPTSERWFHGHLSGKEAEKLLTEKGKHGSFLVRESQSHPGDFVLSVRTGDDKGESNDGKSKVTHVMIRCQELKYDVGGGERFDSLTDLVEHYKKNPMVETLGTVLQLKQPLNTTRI

[2] = molecular target: T1, SHP2_(2SH2); assay: ITC
[3] = molecular target: T2, GST-SHP2 (UniProt Q06124 1-593); assay: pull-down
T2 sequence (looked up): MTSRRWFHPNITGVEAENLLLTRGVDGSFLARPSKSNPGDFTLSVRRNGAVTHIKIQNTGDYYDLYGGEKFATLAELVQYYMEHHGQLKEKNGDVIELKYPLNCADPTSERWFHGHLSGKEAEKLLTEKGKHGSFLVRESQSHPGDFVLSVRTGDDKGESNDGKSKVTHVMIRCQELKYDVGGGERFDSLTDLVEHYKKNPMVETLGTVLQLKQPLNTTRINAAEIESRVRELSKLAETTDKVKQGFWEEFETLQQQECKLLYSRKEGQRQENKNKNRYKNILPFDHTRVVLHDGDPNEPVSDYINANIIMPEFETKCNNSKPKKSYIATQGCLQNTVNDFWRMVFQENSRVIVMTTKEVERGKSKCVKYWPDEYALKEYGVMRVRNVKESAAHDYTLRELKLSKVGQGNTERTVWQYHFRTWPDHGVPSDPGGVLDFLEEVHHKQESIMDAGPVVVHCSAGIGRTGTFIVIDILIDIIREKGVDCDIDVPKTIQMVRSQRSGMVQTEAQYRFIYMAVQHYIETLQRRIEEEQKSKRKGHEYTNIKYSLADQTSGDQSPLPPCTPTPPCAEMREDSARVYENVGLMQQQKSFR

binding result [1]: binds
B1: GST-pC58 (domain or fragment, UniProt P21802 763-821, looked up)
chain: LTTNEEYLDLSQPLEQYSPSYPDTRSSCSSGDDSVFSPDPMPYEPCLPQYPHINGSVKT
modifications: tyrosine phosphorylated in vitro

Kd [2]: ~8 µM
stoichiometry N [2]: 1
B2: pFGFR2C58 (domain or fragment, UniProt P21802 764-821, looked up)
chain: TTNEEYLDLSQPLEQYSPSYPDTRSSCSSGDDSVFSPDPMPYEPCLPQYPHINGSVKT
modifications: tyrosine phosphorylated in vitro (sites not printed for the preparation)

binding result [3]: binds
B3: pFGFR2_(Cyto) (domain or fragment, UniProt P21802 400-821, looked up)
chain: MKNTTKKPDFSSQPAVHKLTKRIPLRRQVTVSAESSSSMNSNTPLVRITTRLSSTADTPMLAGVSEYELPEDPKWEFPRDKLTLGKPLGEGCFGQVVMAEAVGIDKDKPKEAVTVAVKMLKDDATEKDLSDLVSEMEMMKMIGKHKNIINLLGACTQDGPLYVIVEYASKGNLREYLRARRPPGMEYSYDINRVPEEQMTFKDLVSCTYQLARGMEYLASQKCIHRDLAARNVLVTENNVMKIADFGLARDINNIDYYKKTTNGRLPVKWMAPEALFDRVYTHQSDVWSFGVLMWEIFTLGGSPYPGIPVEELFKLLKEGHRMDKPANCTNELYMMMRDCWHAVPSQRPTFKQLVEDLDRILTLTTNEEYLDLSQPLEQYSPSYPDTRSSCSSGDDSVFSPDPMPYEPCLPQYPHINGSVKT
modifications: tyrosine phosphorylated in vitro (sites not printed for the preparation)
